In publication PMC11960969, “Mdga2 deficiency leads to an aberrant activation of BDNF/TrkB signaling that underlies autism-relevant synaptic and behavioral changes in mice” (PLOS Biology, 2025):

How the values were obtained:
[1] = test system: TrkB signaling (pTrkB, pAkt, pmTOR); test: Immunoblotting of TrkB/Akt/mTOR phosphorylation in primary neurons transfected with MDGA2, ΔMAM or V930I; assay type: cell-based, mouse; conditions: Mdga2-/- neurons, n = 6, Fig 7F
Description: Fig 3 MDGA2 interacts with TrkB and suppresses TrkB activity. (A) Primary hippocampal neurons derived from Mdga2^ +/− (Het) mice and their wild-type (WT) littermates at DIV 7 were treated with different doses of BDNF for 30 min. Equal amounts of protein lysates were subjected to immunoprecipitation (IP) with an anti-TrkB antibody, followed by immunoblotting with an anti-phosphotyrosine (pTyr) antibody or the anti-TrkB antibody. The pTyr levels were quantified by densitometry, normalized to total TrkB levels, and then compared to those of WT controls. n = 3 per group. (B) WT mouse brain lysates were subjected to IP with an anti-MDGA2 antibody and a control IgG, and immunoblotted (IB) for the components indicated. mBDNF, mature BDNF; ImBDNF, immature BDNF. (C) Hippocampal neurons from WT mice at DIV 7 were immunostained with antibodies against MDGA2 (red) and TrkB (green), and then counter-stained with DAPI (blue). Images were acquired by a confocal microscope. Scale bar: 10 μm. (D) Surface plasmon resonance (SPR) analysis of the binding between recombinant MDGA2 protein and recombinant TrkB protein. TrkB was immobilized on a Biacore CM5 chip and tested for its binding with MDGA2 at the concentrations indicated. (E) Computer simulation of the binding mode of TrkB and MDGA2. The predicted binding domain of TrkB (the d5 domain) is highlighted by a red square and labeled in brown. The predicted binding domain of MDGA2 (the MAM domain) is highlighted by a red square and labeled in yellow. (F) HEK293T cells were co-transfected with TrkB-Flag and GFP-tagged full-length MDGA2 (MDGA2-GFP) or an MDGA2 deletion fragment lacking the entire MAM domain (ΔMAM-GFP). Cell lysates were subjected to IP with control IgG and antibodies against Flag or GFP, and immunoblotted for the components indicated. […] The scheme of MDGA2-ΔMAM is also shown. (G) HeLa cells were co-transfected with TrkB that is tagged with the N-terminal Venus fragment (TrkB-VN) and full-length MDGA2 or MDGA2-ΔMAM that are tagged with the C-terminal Venus fragment (MDGA2-VC or ΔMAM-VC) for 24 h. After immunostaining with antibodies against MDGA2/MDGA2-ΔMAM (pink) and TrkB (red), cells were observed by confocal microscopy. Venus signal (green) indicates the interaction between MDGA2 and TrkB. Schematic diagrams depicting the BiFC assay are also shown. Scale bars: 10 μm. (H, I) Equal amounts of protein lysates from primary neurons derived from Het, KO, and their WT littermate mice (H), and from WT primary neurons transfected with GFP control, MDGA2-GFP or ΔMAM-GFP (I) were subjected to IP with IgG and an anti-BDNF antibody, and then immunoblotted for the components indicated. Immunoprecipitated TrkB levels were quantified by densitometry, normalized to input levels, and compared to respective controls (set to one arbitrary units). n = 3 per group. (J) Neurons derived from KO mice were transfected with GFP control (Ctrl), MDGA2-GFP, or MDGA2-ΔMAM-GFP, and neurons derived from their WT littermates were transfected with GFP control (Ctrl). Equal amounts of protein lysates were subjected to immunoblotting for the proteins indicated. Levels of phosphorylated proteins were quantified by densitometry, normalized to respective total protein levels and compared to controls (set to one arbitrary units). n = 6 per group. Data represent mean ± SEM. P-values were determined by two-tailed unpaired Student t-test in (A) and one-way ANOVA with Tukey’s multiple comparisons test in (H, I, J). *p < 0.05, **p < 0.01, ***p < 0.001, ns: not significant. The data underlying this figure can be found in S1 Data, specifically in the sheet labeled “Figure 3”.
Fig 7 The autism spectrum disorder (ASD)-associated MDGA2 V930I mutation impairs the MDGA2-TrkB interaction and MDGA2’s inhibitory effect on the tyrosine kinase B (TrkB) signaling. (A) Schematic depiction of the WT human MDGA2 and its V930I mutation constructs that are tagged with GFP. […]

HeLa cells = test: Cell surface biotinylation of MDGA2 or V930I in transfected HeLa cells; assay type: cell-based; conditions: n = 4, Fig 7D
From the text: (§1) Fig 7 The autism spectrum disorder (ASD)-associated MDGA2 V930I mutation impairs the MDGA2-TrkB interaction and MDGA2’s inhibitory effect on the tyrosine kinase B (TrkB) signaling. (A) Schematic depiction of the WT human MDGA2 and its V930I mutation constructs that are tagged with GFP. (B, C) HeLa cells (B) and mouse primary neurons (C) transfected with MDGA2 (green) or V930I (green) were immunostained with an antibody against the plasma membrane protein ATP1A1 (red) and then observed by confocal microscopy. Scale bars = 10 μm. (D) Cell surface expression of WT MDGA2 or V930I in transfected HeLa cells was determined by surface biotinylation assays. Biotinylated (cell surface) protein levels were quantified by densitometry and normalized to total protein levels for comparison (WT MDGA2 levels were set to one arbitrary unit). n = 4 experimental replicates. (E) Mouse primary neurons were transfected with MDGA2, V930I, or ΔMAM. […] Immunoprecipitated protein levels were quantified by densitometry, normalized to respective inputs, and compared to those transfected with MDGA2 (set to one arbitrary units). n = 4 experimental replicates. […] Levels of phosphorylated proteins were quantified by densitometry, normalized to respective total protein levels and compared to controls (set to one arbitrary units). n = 6 experimental replicates. […]

TrkB = test: Co-IP of MDGA2, V930I or ΔMAM with TrkB in mouse primary neurons; assay type: binding; conditions: n = 4, Fig 7E
From the text: as §1

[2] = test system: cell membrane localization in HeLa cells and mouse primary neurons; test: Immunostaining of membrane localization of MDGA2, ΔMAM or V930I in transfected cells; assay type: cell-based; conditions: HeLa cells and mouse primary neurons, Fig 7B, 7C
From the text: as §1

B1: MDGA2-V930I: MDGA2 with ASD-associated missense mutation V930I, GFP-tagged (protein)
chain: PPTVRIVHSGLACNIEEERYSERVYTIREGETLELTCLVTGHPRPQIRWTKTAGSASDRFQDSSVFNETLRITNIQRHQGGRYYCKAENGLGSPAIKSIRVDVYYLDDPVVTVHQSIGEAKEQFYYERTVFLRCVANSNPPVRYSWRRGQEVLLQGSDKGVEIYEPFFTQGETKILKLKNLRPQDYANYSCIASVRNVCNIPDKMVSFRLSNKTASPSIKLLVDDPIVVNPGEAITLVCVTTGGEPAPSLTWVRSFGTLPEKTVLNGGTLTIPAITSDDAGTYSCIANNNVGNPAKKSTNIIVRALKKGRFWITPDPYHKDDNIQIGREVKISCQVEAVPSEELTFSWFKNGRPLRSSERMVITQTDPDVSPGTTNLDIIDLKFTDFGTYTCVASLKGGGISDISIDVNISSSTVPPNLTVPQEKSPLVTREGDTIELQCQVTGKPKPIILWSRADKEVAMPDGSMQMESYDGTLRIVNVSREMSGMYRCQTSQYNGFNVKPREALVQLIVQYPPAVEPAFLEIRQGQDRSVTMSCRVLRAYPIRVLTYEWRLGNKLLRTGQFDSQEYTEYAVKSLSNENYGVYNCSIINEAGAGRCSFLVTGKAYAPEFYYDTYNPVWQNRHRVYSYSLQWTQMNPDAVDRIVAYRLGIRQAGQQRWWEQEIKINGNIQKGELITYNLTELIKPEAYEVRLTPLTKFGEGDSTIRVIKYSAPVNPHLREFHCGFEDGNICLFTQDDTDNFDWTKQSTATRNTKYTPNTGPNADRSGSKEGFYMYIETSRPRLEGEKARLLSPVFSIAPKNPYGPTNTAYCFSFFYHMYGQHIGVLNVYLRLKGQTTIENPLWSSSGNKGQRWNEAHVNIYPITSFQLIFEGIRGPGIEGDIAIDDVSIAEGECAKQDLATKNSID
modifications: left off: GFP, end not stated, kept
notes: MDGA2 with ASD-associated missense mutation V930I, GFP-tagged
aberrant activation of TrkB/Akt signaling upon re-expression [1]: did not inhibit the aberrant activation of the TrkB/Akt signaling as WT MDGA2 did | cell surface levels (biotinylation) (HeLa cells): significantly lower than those of WT MDGA2 | interaction with TrkB (IP) vs WT MDGA2 (TrkB): significantly decreased compared to that of WT MDGA2 | cell surface distribution (immunostaining) [2]: cell surface distribution was much less than that of WT MDGA2
